Three substances from article PMC4424342 can be followed below.

This test deals with GST-Shp2 SH2 T73D/S189D. The experiment in a line: pull-down; glutathione-Sepharose bead-bound bacterial GST-Shp2 SH2 proteins incubated with lysates of HEK293T cells transfected with the ligand and constitutively active Src; 1 h at 4 °C; bound proteins immunoblotted for phosphotyrosine (4G10) and GST; band intensities quantified with ImageJ.
In turn, “Venus-GAB2, tyrosine-phosphorylated (from UniProt Q9UQC2 1-676) (natural protein)” had a fold reduction of binding against the wild-type SH2 domains of 2.7 fold.

“GFP-PKD1, tyrosine-phosphorylated (from UniProt Q15139 1-912) (enzyme)” registered a fold reduction of binding against the wild-type SH2 domains of 1.7 fold.

As for “Venus-GAB1, tyrosine-phosphorylated (from UniProt Q13480 1-694) (natural protein)”, the fold reduction of binding against the wild-type SH2 domains came out at 5.7 fold.
